Experimental data taken from patent US20260116970A1 (NMI NATURWISSENSCHAFTLICHES UND MEDIZINISCHES INSTITUT AN …, published 2026).

T1: murine SIRPα on U2OS cells (mouse, UniProt P97797 32-513)
T1 construct: whole, on cells; also called mouse SIRPα
T1 sequence (looked up): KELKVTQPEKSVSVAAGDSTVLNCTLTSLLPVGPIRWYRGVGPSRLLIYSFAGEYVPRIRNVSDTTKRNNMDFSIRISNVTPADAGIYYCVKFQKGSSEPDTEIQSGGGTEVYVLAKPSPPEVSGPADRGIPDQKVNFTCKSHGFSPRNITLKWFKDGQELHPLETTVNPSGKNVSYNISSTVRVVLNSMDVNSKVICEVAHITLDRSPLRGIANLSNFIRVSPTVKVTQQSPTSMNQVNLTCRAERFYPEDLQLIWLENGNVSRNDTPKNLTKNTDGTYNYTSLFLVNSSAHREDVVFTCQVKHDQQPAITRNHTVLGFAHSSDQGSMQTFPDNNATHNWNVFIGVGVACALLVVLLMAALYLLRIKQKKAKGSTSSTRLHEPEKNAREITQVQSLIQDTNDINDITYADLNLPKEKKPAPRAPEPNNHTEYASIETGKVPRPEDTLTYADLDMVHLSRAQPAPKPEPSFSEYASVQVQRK


How the values were obtained:
[1] = target: T2, recombinant hSIRPα (extracellular portion) (human, UniProt P78324 31-373, biotinylated with Sulfo-NHS-LC-LC-Biotin where immobilised on streptavidin sensors); test: BLI, biotinylated hSIRPα immobilised on streptavidin biosensors, chelator conjugated S36K>R at 1.25-10 nM
T2 construct: extracellular domain; The limits aa31-370 are stated for the immunogen; The BLI and HDX text says only 'recombinant hSIRPα' / 'biotinylated hSIRPα'; also called biotinylated hSIRPα
T2 sequence (P78324 31-373): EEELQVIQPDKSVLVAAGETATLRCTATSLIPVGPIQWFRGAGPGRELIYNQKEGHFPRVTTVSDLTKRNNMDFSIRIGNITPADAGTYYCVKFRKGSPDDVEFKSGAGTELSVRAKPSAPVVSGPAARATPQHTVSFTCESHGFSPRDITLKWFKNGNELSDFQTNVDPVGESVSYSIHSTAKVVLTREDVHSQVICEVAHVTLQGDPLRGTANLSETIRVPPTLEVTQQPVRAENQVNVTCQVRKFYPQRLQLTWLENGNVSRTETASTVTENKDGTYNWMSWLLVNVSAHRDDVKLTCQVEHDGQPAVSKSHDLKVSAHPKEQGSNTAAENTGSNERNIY
Procedure: Biotinylated hSIRPα was immobilized on streptavidin biosensors. Kinetic measurements were performed by using four concentrations of purified Nbs ranging from 1.25 nM to 10 nM; (E) Stability analysis of chelator conjugated hSIRPα-S36_{K>R} Nb by nanoDSF as fluorescence ratios (350 nm/330 nm) and light intensity loss due to scattering illustrated as first derivative before (To) and after 10 days of accelerated aging at 37° C. (T₁₀); and (F) Phagocytosis of DLD-1 cells by human monocyte-derived macrophages treated with anti-EGFR cetuximab and chelator conjugated hSIRPα-S36_{K>R} Nb. Analysis of phagocytosis of hSIRPα-S36_{K>R} Nb in combination with cetuximab of three different donors (K1, K2, K3). Data are presented as mean±SD of three technical replicates. And
Analysis of binding kinetics of hSIRPα specific Nbs was performed using the Octet RED96e system (Sartorius) as per the manufacturer's recommendations. In brief, […] of biotinylated hSIRPα diluted in Octet buffer (PBS, 0.1% BSA, 0.02% Tween20) was immobilized on streptavidin coated biosensor tips (SA, Sartorius) for 40 s. In the association step, a dilution series of Nbs ranging from 0.625-320 nM were reacted for 240 s followed by dissociation in Octet buffer for 720 s. […] Data were analyzed using the Octet Data Analysis HT 12.0 software applying the 1:1 ligand-binding model and global fitting. […]

[2] = target: T1, murine SIRPα on U2OS cells; test: live-cell immunofluorescence on U2OS cells transiently expressing murine SIRPα
Procedure: (§1) Stably expressing hSIRPα U2OS cells, U2OS wt or U2OS cells transiently expressing individual hSIRPα domains (D1-3) with SPOT-Tag or different hSIRP family members (hSIRPα-V1, hSIRPα-V2, hSIRPβ1, hSIRPγ, murine SIRPα) were plated at ˜10,000 cells per well of a μClear 96-well plate (Greiner Bio One, cat. #655090) and cultivated overnight at standard conditions. For imaging, medium was replaced by live-cell visualization medium DMEMgfp-2 (Evrogen, cat. #MC102) supplemented with 10% FBS, 2 mM L-glutamine, 2 μg/ml Hoechst33258 (Sigma Aldrich) for nuclear staining. 1-100 nM of unlabeled hSIRPα Nbs in combination with 2.5 μg/ml anti-VHH secondary Cy5 AffiniPure Goat Anti-Alpaca IgG (Jackson Immuno Research) were added and incubated for 1 h at 37° C. For control staining hSIRPα Ab PE (SE5A5, BioLegend) and bivSPOT-Nb labeled with AlexaFluor647 (AF647) were used. Images were acquired with a MetaXpress Micro XL system (Molecular Devices) at 20× or 40× magnification.
(§2) Moreover, with hSIRPαV1 and hSIRPαV2, two isoforms are expressed either homozygously (v1/v1 or v2/v2) or heterozygously (v1/v2), and the frequency of distribution varies between human subpopulations (Sim et al., “Discovery of high affinity, pan-allelic, and pan-mammalian reactive antibodies against the myeloid checkpoint receptor SIRPα”, MAbs. Taylor & Francis (2019) pp. 1036-1052). To address the question of specificity, hSIRPβ1, hSIRPγ or the hSIRPα polymorphisms hSIRPα-V1 and hSIRPα-V2 were transiently expressed in U2OS cells and their recognition was analyzed by the selected hSIRPα Nbs by immunofluorescence staining. In addition, murine SIRPα was included to evaluate potential cross-reactivity between human and mouse SIRPα variants (FIG. 3A; data not shown).

hSIRPβ1 on U2OS cells = target: T3, hSIRPβ1 on U2OS cells (human, UniProt O00241 30-398); test: immunofluorescence on U2OS cells transiently expressing hSIRPβ1
T3 construct: whole, on cells; also called SIRP beta
T3 sequence (O00241 30-398): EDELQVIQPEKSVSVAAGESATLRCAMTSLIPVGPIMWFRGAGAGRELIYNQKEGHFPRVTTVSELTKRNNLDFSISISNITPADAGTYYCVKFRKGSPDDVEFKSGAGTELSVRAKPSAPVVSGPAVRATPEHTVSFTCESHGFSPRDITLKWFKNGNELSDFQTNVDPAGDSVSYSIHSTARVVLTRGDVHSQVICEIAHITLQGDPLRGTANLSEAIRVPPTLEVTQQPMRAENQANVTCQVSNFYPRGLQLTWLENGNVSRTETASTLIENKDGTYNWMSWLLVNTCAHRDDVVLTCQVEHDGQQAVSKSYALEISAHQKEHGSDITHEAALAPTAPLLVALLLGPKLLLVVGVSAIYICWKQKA
Procedure: as §1, with “For control staining hSIRPα Ab PE (SE5A5, BioLegend) and bivSPOT-Nb labeled with AlexaFluor647 (AF647) were used. Images were acquired with a MetaXpress Micro XL system (Molecular Devices) at 20× or 40× magnification.” left out
(§3) Moreover, with hSIRPαV1 and hSIRPαV2, two isoforms are expressed either homozygously (v1/v1 or v2/v2) or heterozygously (v1/v2), and the frequency of distribution varies between human subpopulations (Sim et al., “Discovery of high affinity, pan-allelic, and pan-mammalian reactive antibodies against the myeloid checkpoint receptor SIRPα”, MAbs. Taylor & Francis (2019) pp. 1036-1052). To address the question of specificity, hSIRPβ1, hSIRPγ or the hSIRPα polymorphisms hSIRPα-V1 and hSIRPα-V2 were transiently expressed in U2OS cells and their recognition was analyzed by the selected hSIRPα Nbs by immunofluorescence staining. […]

hSIRPγ on U2OS cells [3] = target: T4, hSIRPγ on U2OS cells (human, UniProt Q9P1W8 29-387); test: immunofluorescence on U2OS cells transiently expressing hSIRPγ
T4 construct: whole, on cells; also called SIRP gamma
T4 sequence (Q9P1W8 29-387): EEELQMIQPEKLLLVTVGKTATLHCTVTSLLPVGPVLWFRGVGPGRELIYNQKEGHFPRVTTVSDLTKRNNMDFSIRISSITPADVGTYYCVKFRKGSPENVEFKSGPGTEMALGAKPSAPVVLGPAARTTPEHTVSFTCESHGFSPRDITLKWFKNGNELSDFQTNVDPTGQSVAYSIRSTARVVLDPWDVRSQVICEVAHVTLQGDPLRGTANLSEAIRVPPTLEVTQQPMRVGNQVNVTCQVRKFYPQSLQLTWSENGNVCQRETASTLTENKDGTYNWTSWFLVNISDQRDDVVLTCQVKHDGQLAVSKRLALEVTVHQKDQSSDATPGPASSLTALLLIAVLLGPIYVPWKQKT
Procedure: as §1, with “For control staining hSIRPα Ab PE (SE5A5, BioLegend) and bivSPOT-Nb labeled with AlexaFluor647 (AF647) were used. Images were acquired with a MetaXpress Micro XL system (Molecular Devices) at 20× or 40× magnification.” left out
as §3

[4] = target: T2, recombinant hSIRPα (extracellular …); test: BLI, biotinylated hSIRPα immobilised on streptavidin biosensors, Nb in solution, global 1:1 fit
Procedure: (§4) Biotinylated hSIRPα was immobilized on streptavidin biosensors.
(§5) Analysis of binding kinetics of hSIRPα specific Nbs was performed using the Octet RED96e system (Sartorius) as per the manufacturer's recommendations. In brief, […] of biotinylated hSIRPα diluted in Octet buffer (PBS, 0.1% BSA, 0.02% Tween20) was immobilized on streptavidin coated biosensor tips (SA, Sartorius) for 40 s. In the association step, a dilution series of Nbs ranging from 0.625-320 nM were reacted for 240 s followed by dissociation in Octet buffer for 720 s. Every run was normalized to a reference run applying Octet buffer for association. Data were analyzed using the Octet Data Analysis HT 12.0 software applying the 1:1 ligand-binding model and global fitting. For epitope binning two consecutive association steps with different Nbs were performed. By analyzing the binding behavior of the second Nb, conclusions about shared epitopes were drawn. For the hCD47 competition assay hCD47 was biotinylated and immobilized on SA biosensors followed by the application of pre-mixed solutions containing hSIRPα (20 nM) and Nb (250 nM). As control the hCD47-competing Ab KWAR23 (5 nM) was used.

[5] = target: T2, recombinant hSIRPα (extracellular …); test: BLI, biotinylated hSIRPα immobilised on streptavidin biosensors, S36 at 0.625-5 nM, global 1:1 fit
Procedure: as §4, §5

hSIRPα-V2 on U2OS cells = target: T5, hSIRPα-V2 on U2OS cells (human, UniProt P78324 31-504); test: live-cell immunofluorescence on U2OS cells transiently expressing hSIRPα-V2, detection with anti-VHH-Cy5
T5 construct: whole, on cells
T5 sequence (P78324 other isoform, or with tags, fused parts or gaps limits assumed): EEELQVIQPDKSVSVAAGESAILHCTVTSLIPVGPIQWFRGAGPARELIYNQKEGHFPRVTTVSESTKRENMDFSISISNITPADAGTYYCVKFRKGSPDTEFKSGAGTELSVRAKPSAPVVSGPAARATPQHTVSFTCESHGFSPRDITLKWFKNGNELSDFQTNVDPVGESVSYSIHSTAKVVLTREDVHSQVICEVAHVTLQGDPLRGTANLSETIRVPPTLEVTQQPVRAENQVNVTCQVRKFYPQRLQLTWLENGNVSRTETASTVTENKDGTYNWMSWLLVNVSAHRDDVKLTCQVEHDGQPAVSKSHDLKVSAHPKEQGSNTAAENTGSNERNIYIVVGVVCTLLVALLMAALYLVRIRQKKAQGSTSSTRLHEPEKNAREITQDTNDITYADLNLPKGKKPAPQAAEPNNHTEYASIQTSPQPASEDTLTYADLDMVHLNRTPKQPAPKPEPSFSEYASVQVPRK
Procedure: (§6) Data are presented as mean±SD of three technical replicates.
Stably expressing hSIRPα U2OS cells, U2OS wt or U2OS cells transiently expressing individual hSIRPα domains (D1-3) with SPOT-Tag or different hSIRP family members (hSIRPα-V1, hSIRPα-V2, hSIRPβ1, hSIRPγ, murine SIRPα) were plated at ˜10,000 cells per well of a μClear 96-well plate (Greiner Bio One, cat. #655090) and cultivated overnight at standard conditions. For imaging, medium was replaced by live-cell visualization medium DMEMgfp-2 (Evrogen, cat. #MC102) supplemented with 10% FBS, 2 mM L-glutamine, 2 μg/ml Hoechst33258 (Sigma Aldrich) for nuclear staining. […]
as §3

hSIRPγ on U2OS cells [6] = target: T4, hSIRPγ on U2OS cells; test: live-cell immunofluorescence on U2OS cells transiently expressing hSIRPγ, detection with anti-VHH-Cy5
Procedure: as §6, §1, §2

Binder | Kd [1] [nM] | binding result [2] | binding result (hSIRPβ1 on U2OS cells) | binding result (hSIRPγ on U2OS cells [3]) | Kd [4] [nM] | koff [4] [s⁻¹] | kon [4] [M⁻¹ s⁻¹] | Kd [5] [nM] | binding result (hSIRPα-V2 on U2OS cells) | binding result (hSIRPγ on U2OS cells [6])
chelator conjugated hSIRPα-S36K>R Nb (VHH, p-NCS-benzyl-NODA-GA chelator conjugated to the single remaining primary NH2-group at the N-terminus) VHH: EVQLVESGGGLVQPGGSLRLSCAASGFTLDYYAIGWFRQVPGREREGVSCISSDGGGNTYYADSVRGRFTISRDNARNTVYLQMNSLRPEDSAVYSCAAGPTYYSGSYCRDPHSDYDYWGQGTQVTVSS | 0.19 | – | – | – | – | – | – | – | – | –
hSIRPα nanobody S36 (VHH, also called Nb S36; hSIRPα-S36 Nb) VHH: EVQLVESGGGLVQPGGSLRLSCAASGFTLDYYAIGWFRQVPGKEREGVSCISSDGGGNTYYADSVKGRFTISRDNAKNTVYLQMNSLKPEDSAVYSCAAGPTYYSGSYCRDPHSDYDYWGQGTQVTVSS | – | no binding (tested: 1-100 nM) | binds | binds | 0.12 | 0.0002 | 1.52e+06 | 0.12 | – | –
hSIRPα nanobody S12 (VHH, also called Nb S12) VHH: QVQLVESGGGLVQPGGSLRLSCLVSGFSSSYYAIGWFRQAPGKEREGVSCITRSGDTTNYADSVKGRFTISRDDARNTVYLQMNSLKTEDTAVYSCALWAWAGSGRLRCTASEYGHWGQGTQVTVSS | – | no binding (tested: 1-100 nM) | – | – | 25.9 | 0.0127 | 490000 | – | no binding (tested: not on the sheet; 1-100 nM per paragraph 140) | –
hSIRPα nanobody S7 (VHH, Expressed from pHEN6 in E. coli and purified by IMAC; the tag is not described; also called Nb S7) VHH: HVQLVESGGGLVQVGDSLRLSCAPSGRTFRAYAMAWFRQAPGKEREFVAAIRWIGGTPSYKDSVKGRFTISRDNARNTFYLQMNSLEPQDTGVYYCAAEETQKGSGLGHDGRHYDYWGQGTPVTVSS | – | no binding (tested: 1-100 nM) | – | – | 20 | 0.0123 | 610000 | – | – | no binding (tested: not on the sheet; 1-100 nM per paragraph 140)
hSIRPα nanobody S33 (VHH, also called Nb S33) VHH: EVQLVESGGGLVQPGGSLRLSCTTSGFTLDYYSVGWFRQAPGKEREGVSCITASGSSTNYANSVKGRFTISRDKVKNTVYLQMSSLKPEDTAVYYCAAEPCTVVAGILQAPTSDFGSWGQGTQVTVSS | – | no binding (tested: 1-100 nM) | – | – | 20 | 0.00544 | 267000 | – | – | no binding (tested: not on the sheet; 1-100 nM per paragraph 140)
hSIRPα nanobody S41 (VHH, The single assignment S41 = 26 follows only from the listing order; also called Nb S41) VHH: HVQLVESGGGLVQPGGSLRLSCAASGETLDYYAIGYVRQAPGKEREGVSCISSRGDNTNYADSVKGRFTISRDNANNTVYLQMNSLKPEDTAVYYCVAIKDSWQNYYCSVGWVEYDVWGQGTQVTVSS | – | – | – | – | 5.65 | 0.00383 | 678000 | – | – | –
hSIRPα nanobody S44 (VHH, also called Nb S44) VHH: QVQLQESGGGLVQPGGSLRLACAASGFTFSSYDMSWVRQAPGKGLEWVSDIKSGGGRTYYADSVKGRFTISRDNAKNTVYLQMNSLKPEDTAVYYCGSLDNSGAYTGGGQGSQVTVSS | – | no binding (tested: 1-100 nM) | – | – | 4.61 | 0.00915 | 1.99e+06 | – | no binding (tested: not on the sheet; 1-100 nM per paragraph 140) | –
hSIRPα nanobody S45 (VHH, also called Nb S45) VHH: HVQLVESGGGLVQPGGSLRLSCAARGFSFRDSAMSWARQAPGKGLEWVGAIYSDGSTVYEKSVKGRFTISRDNAKNTMYLQMHSLKPEDSARYYCAPKGVVADEGDYSGQGTLVTVSS | – | no binding (tested: 1-100 nM) | – | – | 2.53 | 0.00164 | 646000 | – | – | no binding (tested: not on the sheet; 1-100 nM per paragraph 140)
hSIRPα nanobody S8 (VHH, Purified by IMAC; the tag is not described; also called Nb S8) VHH: QVQLVESGGGLVQPGGSLRLSCADSEFRLDEYATGWFRQAPGKEREGVACISRSGSNTKYTDSVKGRFTISRDNAKKTVYLQMNSLKPEDTAVYYCAADLTSHYLSCSSYTDYNSWGQGTQVTVSS | – | no binding (tested: 1-100 nM) | – | – | 0.46 | 0.0009 | 2.04e+06 | – | – | –
